Results from patent publication US20100292444A1 (published 2010).
Where a chain is given by its changes, count along the chain named. Names and notes keep the numbering of the source.

T1: Ser-PRLR (1-210) (UniProt P16471 25-234)
T1 construct: range 1-210; also called PRL receptor; prolactin receptor
T1 sequence: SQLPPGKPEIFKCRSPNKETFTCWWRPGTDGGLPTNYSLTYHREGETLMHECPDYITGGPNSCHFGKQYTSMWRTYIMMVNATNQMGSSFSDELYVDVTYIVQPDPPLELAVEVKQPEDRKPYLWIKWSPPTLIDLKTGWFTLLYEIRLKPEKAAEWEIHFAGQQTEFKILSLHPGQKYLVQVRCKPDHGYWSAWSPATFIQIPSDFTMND

B1: G129R-PRL (ligand)
chain: LPICPGGAARCQVTLRDLFDRAVVLSHYIHNLSSEMFSEFDKRYTHGRGFITKAINSCHTSSLATPEDKEQAQQMNQKDFLSLIVSILRSWNEPLYHLVTEVRGMQEAPEAILSKAVEIEEQTKRLLERMELIVSQVHPETKENEIYPVWSGLPSLQMADEESRLSAYYNLLHCLRRDSHKIDNYLKLLKCRIIHNNNC
notes: also called G129R-hPRL
B2: N56D,G129R-PRL (ligand)
chain: B1 chain with N56D
notes: Recombinant mutant that mimics G129R-PRL deamidated at Asn-56; also called deamidated form of G129R-PRL

Molecular target: T1, Ser-PRLR (1-210)
Assay: SPR (Biacore 3000): Ser-PRLR (1-210) amine-coupled to a CM5 chip, analogue injected at 500 nM
Procedure: Ser-PRLR (1-210) (25 μg/ml in 10 mM sodium acetate, pH 3.0), was injected into a Biacore 3000 instrument at a flow rate of 5 μl/min and coupled to a CM5 sensor chip by amine coupling chemistry. […] Data evaluation was performed in BiaEvaluation 4.1. Regeneration was accomplished with 4.5 M MgCl₂ between runs.
The PRL receptor binding affinity of G129R-PRL was compared to that of N56D,G129R-PRL (corresponding to the deamidated form of G129R-PRL), using the Biacore-assay. […] Thus, deamidation of […] markedly reduces the receptor binding affinity

| Binder | Kd [nM] |
| --- | --- |
| B1 | 27 |
| B2 | 313 |
